In IntAct's records for PubMed 18256688:

B1: Regulator of nonsense transcripts 1 (Homo sapiens), Q92900 (parent)
chain: MSVEAYGPSSQTLTFLDTEEAELLGADTQGSEFEFTDFTLPSQTQTPPGGPGGPGGGGAGGPGGAGAGAAAGQLDAQVGPEGILQNGAVDDSVAKTSQLLAELNFEEDEEDTYYTKDLPIHACSYCGIHDPACVVYCNTSKKWFCNGRGNTSGSHIVNHLVRAKCKEVTLHKDGPLGETVLECYNCGCRNVFLLGFIPAKADSVVVLLCRQPCASQSSLKDINWDSSQWQPLIQDRCFLSWLVKIPSEQEQLRARQITAQQINKLEELWKENPSATLEDLEKPGVDEEPQHVLLRYEDAYQYQNIFGPLVKLEADYDKKLKESQTQDNITVRWDLGLNKKRIAYFTLPKTDSGNEDLVIIWLRDMRLMQGDEICLRYKGDLAPLWKGIGHVIKVPDNYGDEIAIELRSSVGAPVEVTHNFQVDFVWKSTSFDRMQSALKTFAVDETSVSGYIYHKLLGHEVEDVIIKCQLPKRFTAQGLPDLNHSQVYAVKTVLQRPLSLIQGPPGTGKTVTSATIVYHLARQGNGPVLVCAPSNIAVDQLTEKIHQTGLKVVRLCAKSREAIDSPVSFLALHNQIRNMDSMPELQKLQQLKDETGELSSADEKRYRALKRTAERELLMNADVICCTCVGAGDPRLAKMQFRSILIDESTQATEPECMVPVVLGAKQLILVGDHCQLGPVVMCKKAAKAGLSQSLFERLVVLGIRPIRLQVQYRMHPALSAFPSNIFYEGSLQNGVTAADRVKKGFDFQWPQPDKPMFFYVTQGQEEIASSGTSYLNRTEAANVEKITTKLLKAGAKPDQIGIITPYEGQRSYLVQYMQFSGSLHTKLYQEVEIASVDAFQGREKDFIILSCVRANEHQGIGFLNDPRRLNVALTRARYGVIIVGNPKALSKQPLWNHLLNYYKEQKVLVEGPLNNLRESLMQFSKPRKLVNTINPGARFMTTAMYDAREAIIPGSVYDRSSQGRPSSMYFQTHDQIGMISAGPSHVAAMNIPIPFNLVMPPMPPPGYFGQANGPAAGRGTPKGKTGRGGRQKNRFGLPGPSQTNLPNSQASQDVASQPFSQGALTQGYISMSQPSQMSQPGLSQPELSQDSYLGDEFKSQIDVALSQDSTYQGERAYQHGGVTGLSQY

Variants of: B1
Settings: with rent2_human UPF2, Q9HAU5
rent2_human UPF2, Q9HAU5, sequence (Q9HAU5 whole entry): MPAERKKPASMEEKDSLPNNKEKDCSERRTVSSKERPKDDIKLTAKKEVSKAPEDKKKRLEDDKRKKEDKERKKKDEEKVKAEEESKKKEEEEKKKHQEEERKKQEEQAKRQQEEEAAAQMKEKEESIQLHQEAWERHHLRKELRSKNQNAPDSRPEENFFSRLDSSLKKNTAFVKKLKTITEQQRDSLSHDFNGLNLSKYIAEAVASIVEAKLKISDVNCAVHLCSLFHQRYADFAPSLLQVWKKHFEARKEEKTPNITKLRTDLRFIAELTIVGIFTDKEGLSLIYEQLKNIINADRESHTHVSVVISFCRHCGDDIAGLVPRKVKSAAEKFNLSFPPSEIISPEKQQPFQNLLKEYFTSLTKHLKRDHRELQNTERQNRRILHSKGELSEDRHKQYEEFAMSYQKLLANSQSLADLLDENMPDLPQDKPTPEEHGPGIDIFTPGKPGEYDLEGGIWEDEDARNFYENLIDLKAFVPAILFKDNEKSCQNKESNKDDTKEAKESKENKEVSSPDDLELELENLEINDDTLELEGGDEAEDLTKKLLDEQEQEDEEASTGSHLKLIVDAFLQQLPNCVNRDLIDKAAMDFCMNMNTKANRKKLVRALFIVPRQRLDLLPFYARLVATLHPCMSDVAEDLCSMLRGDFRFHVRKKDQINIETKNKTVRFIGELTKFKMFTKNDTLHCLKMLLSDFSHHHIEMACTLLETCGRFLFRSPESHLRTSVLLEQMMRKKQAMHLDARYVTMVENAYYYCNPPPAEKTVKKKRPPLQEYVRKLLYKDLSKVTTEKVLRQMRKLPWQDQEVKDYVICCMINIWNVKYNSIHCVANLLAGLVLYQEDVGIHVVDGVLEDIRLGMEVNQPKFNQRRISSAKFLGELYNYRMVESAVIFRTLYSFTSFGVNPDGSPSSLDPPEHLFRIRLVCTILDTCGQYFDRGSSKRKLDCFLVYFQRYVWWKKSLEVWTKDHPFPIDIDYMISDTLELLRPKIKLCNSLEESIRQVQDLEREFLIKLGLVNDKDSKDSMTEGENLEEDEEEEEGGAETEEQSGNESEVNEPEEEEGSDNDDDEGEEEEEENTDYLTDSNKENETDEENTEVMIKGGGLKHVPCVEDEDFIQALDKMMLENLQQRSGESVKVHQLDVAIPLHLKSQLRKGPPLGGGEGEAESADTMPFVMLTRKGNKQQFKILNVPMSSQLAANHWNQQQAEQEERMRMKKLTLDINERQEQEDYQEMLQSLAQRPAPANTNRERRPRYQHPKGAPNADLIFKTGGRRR

effect of a mutation on the interaction | Variant
disrupting interaction | V205I
disrupting interaction | V204D

Variants of: B1
Settings: with rent2_human UPF2, Q9HAU5
Remark: another data set of the same source

effect of a mutation on the interaction | Variant
disrupting interaction | C183V
disrupting interaction | E182R
disrupting interaction | L181V
disrupting interaction | Y184D

Variants of: B1
Settings: with rent2_human UPF2, Q9HAU5
Remark: another data set of the same source

effect of a mutation on the interaction | Variant
disrupting interaction | C126S
